Assay results taken from PMC3484393, “Unwinding of synthetic replication and recombination substrates by Srs2”.

Experiments:
[1] = target: T1, Srs2ΔC (Srs2 1-898) (Saccharomyces cerevisiae? (budding …, UniProt P12954 1-898)); experiment: competition; FITC-3' overhang competitor releasing 50% of Cy5-ssDNA (N1) from 150 nM Srs2ΔC; 30 mM Tris pH 7.5, 1 mM DTT, 0.1 mg/ml BSA, 100 mM KCl, 3 nM DNA, 30 °C 10 min; 7% native PAGE in 0.5x TBE; conditions: protein: recombinant; tags: His9 (pull-down section says His6); label: fluorescein (FITC), end label
T1 sequence (P12954 1-898, stated change not applied): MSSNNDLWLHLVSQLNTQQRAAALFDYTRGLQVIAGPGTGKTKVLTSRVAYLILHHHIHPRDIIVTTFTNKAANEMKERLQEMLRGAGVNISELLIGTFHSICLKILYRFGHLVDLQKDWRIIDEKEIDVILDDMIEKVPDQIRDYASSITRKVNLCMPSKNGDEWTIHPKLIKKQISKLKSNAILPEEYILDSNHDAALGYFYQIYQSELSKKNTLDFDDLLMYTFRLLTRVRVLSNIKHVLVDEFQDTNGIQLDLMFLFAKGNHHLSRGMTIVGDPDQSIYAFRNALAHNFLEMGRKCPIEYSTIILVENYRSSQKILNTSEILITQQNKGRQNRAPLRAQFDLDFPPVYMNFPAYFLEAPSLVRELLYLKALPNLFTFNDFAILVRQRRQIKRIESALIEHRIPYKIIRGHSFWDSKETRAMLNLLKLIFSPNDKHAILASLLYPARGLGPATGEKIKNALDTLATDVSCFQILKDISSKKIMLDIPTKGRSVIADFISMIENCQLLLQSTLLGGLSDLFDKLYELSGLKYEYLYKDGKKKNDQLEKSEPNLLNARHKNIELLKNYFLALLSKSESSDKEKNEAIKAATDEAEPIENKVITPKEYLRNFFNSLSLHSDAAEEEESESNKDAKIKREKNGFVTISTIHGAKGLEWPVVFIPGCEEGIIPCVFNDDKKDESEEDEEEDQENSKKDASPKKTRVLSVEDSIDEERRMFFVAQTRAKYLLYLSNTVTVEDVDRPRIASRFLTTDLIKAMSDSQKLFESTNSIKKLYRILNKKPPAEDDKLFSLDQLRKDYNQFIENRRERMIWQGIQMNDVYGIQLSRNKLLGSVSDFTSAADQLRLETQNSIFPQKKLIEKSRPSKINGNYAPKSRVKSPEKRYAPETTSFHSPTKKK

[2] = target: T1, Srs2ΔC (Srs2 1-898); experiment: EMSA; much higher affinity than other substrates; 3 nM DNA; 30 mM Tris pH 7.5, 1 mM DTT, 0.1 mg/ml BSA, 100 mM KCl, 3 nM DNA, 30 °C 10 min; 7% native PAGE in 0.5x TBE; conditions: protein: recombinant, tags: His9 (pull-down section says His6), label: fluorescent dye (fluorescein or Cy5), end label
[3] = target: T1, Srs2ΔC (Srs2 1-898); experiment: competition; FITC-ssDNA competitor against Cy5-ssDNA with 150 nM Srs2ΔC; value derived from text: 3 times higher than the 5 nM of 3' overhang; 30 mM Tris pH 7.5, 1 mM DTT, 0.1 mg/ml BSA, 100 mM KCl, 3 nM DNA, 30 °C 10 min; 7% native PAGE in 0.5x TBE; conditions: protein: recombinant; tags: His9 (pull-down section says His6); label: fluorescein or Cy5, end label; single strand

B1: 3' overhang (mixed)
DNA 1: AGCTACCATGCCTGCACGAATTAAGCAATTCGTAATCATGGTCATAGCT
DNA 2: AATTCGTGCAGGCATGGTAGCT
IC50 [1]: ~0.005 µM

B2: 5' overhang (mixed)
DNA 1: B1 DNA 1
DNA 2: AGCTATGACCATGATTACGAATTGCTT
binding result [2]: binds

B3: 5' flap (fork with leading strand) (structured_DNA)
DNA 1: B1 DNA 1
DNA 2: AGCTATGACCATGATTACGAATTGCTT
DNA 3: GATGTCAAGCAGTCCTAAGGAATTCGTGCAGGCATGGTAGCT
binding result ([2]; 5' flap): binds

AGCTACCATGCCTGCACGAATTAAGCAATTCGTAATCATGGTCATAGCT (ssDNA) [ssDNA]
IC50 [3]: ~0.015 µM
